The values below come from paper PMC7353009, “Identification of Substrates of Cytoplasmic Peptidyl-Prolyl Cis/Trans Isomerases and Their Collective Essentiality in Escherichia Coli” (International Journal of Molecular Sciences, 2020).

“And” between values parts separate entries of the source, which are not always exact repeats. Equal values may be shown once.

B1: AhpC-derived peptide (peptide)
peptide: RATFVVDPQGI
notes: peptide from AhpC (alkyl hydroperoxide reductase subunit C), E. coli; also called AhpC peptide
B2: Hexa-His-tagged PpiC (wild type) (enzyme, E. coli, UniProt P0A9L5 1-93, looked up)
chain: MAKTAAALHILVKEEKLALDLLEQIKNGADFGKLAKKHSICPSGKRGGDLGEFRQGQMVPAFDKVVFSCPVLEPTGPLHTQFGYHIIKVLYRN
notes: PpiC, parvulin peptidyl-prolyl cis/trans isomerase, E. coli; coding region of the ppiC gene in pET24b; The tag is called cleavable; also called wt PpiC; wild-type PpiC; source: E. coli T7 express derivative lacking all six PPIs (SR21984), IPTG-induced; in lysate on Ni-NTA for co-elution; purified (Ni-NTA) for ITC; not shown: His6, C-terminal, kept
B5: Hexa-His-tagged FkpB (wild type) (enzyme, E. coli, UniProt P0AEM0 1-149, looked up)
chain: MSESVQSNSAVLVHFTLKLDDGTTAESTRNNGKPALFRLGDASLSEGLEQHLLGLKVGDKTTFSLEPDAAFGVPSPDLIQYFSRREFMDAGEPEIGAIMLFTAMDGSEMPGVIREINGDSITVDFNHPLAGQTVHFDIEVLEIDPALEA
notes: FkpB, FKBP-type peptidyl-prolyl cis/trans isomerase, E. coli; minimal coding region of the fkpB gene in pET24b; also called wild-type FkpB; source: E. coli T7 express derivative lacking all six PPIs (SR21984), IPTG-induced; in lysate on Ni-NTA for co-elution; purified (Ni-NTA) for ITC; not shown: His6, C-terminal, kept
B6: RseA peptide Rse3 (peptide)
peptide: IIEEEPVRQPATL
notes: peptide from the conserved regions of the N-terminal domain of RseA, E. coli
B7: RseA peptide Rse1 (peptide, UniProt P0AFX7 2-29, looked up)
peptide: QKEQLSALMDGETLDSELLNELAHNPEM
notes: peptide corresponding to amino acid 2-29 of N-RseA (N-terminal domain of the anti-sigma factor RseA), E. coli

Assay [1] deals with B5. Nature of the assay: ITC; Nano ITC; 200 μM peptide in the cell titrated with 2 mM protein, 25 injections of 2 μL, 20 °C, 20 mM sodium phosphate pH 7.5, 100 mM NaCl; 1:1 binding model. The following applies: both partners purified. On the technique in general: ITC needs no label: the signal is the heat of the interaction.
Assay [2] deals with B2. The description is as above. As to conditions: both partners purified.
Assay [3] has as its target T1, Hexa-His-tagged PpiC M57A (E. coli).
T1 chain: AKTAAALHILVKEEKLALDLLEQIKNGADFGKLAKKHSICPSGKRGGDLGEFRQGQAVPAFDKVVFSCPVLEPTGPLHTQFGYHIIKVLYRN
Nature of the assay: ITC.

The target in assay [4] is T2, Hexa-His-tagged PpiC F81A (E. coli).
T2 chain: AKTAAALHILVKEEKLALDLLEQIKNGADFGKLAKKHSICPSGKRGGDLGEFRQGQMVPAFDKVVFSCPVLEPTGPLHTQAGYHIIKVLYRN
Put plainly: ITC.

Assay [5] concerns the target T3, Hexa-His-tagged FkpB (wild type) (E. coli, UniProt P0AEM0 1-149).
T3 chain: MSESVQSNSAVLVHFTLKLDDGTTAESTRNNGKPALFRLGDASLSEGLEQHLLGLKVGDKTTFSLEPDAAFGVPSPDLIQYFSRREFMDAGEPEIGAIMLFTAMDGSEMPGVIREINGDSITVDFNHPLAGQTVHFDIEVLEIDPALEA
Put plainly: ITC.

The assay “AhpC-derived peptide” has as its target B1. Put plainly: ITC; Nano ITC; 200 μM peptide in the cell titrated with 2 mM protein, 25 injections of 2 μL, 20 °C, 20 mM sodium phosphate pH 7.5, 100 mM NaCl; 1:1 binding model. As to conditions: both partners purified.
The assay “RseA peptide Rse3” deals with B6. The description is as above. As to conditions: both partners purified.
For the assay “RseA peptide Rse1”, the target named is B7. The assay is described as above. As to conditions: both partners purified.

B1: the equilibrium dissociation constant (Kd) (as a rule, the concentration at which binding is half-saturated) in assay [1] is 47 µM; in assay [2], 30 µM and 47.4 µM; in assay [3], 68.8 µM; in assay [4] it was 77.6 µM; in assay [5], 30.3 µM.

B2: the stoichiometry N (in general, the number of molecules, sites or subunits per partner or assembly) in the assay with AhpC-derived peptide was 0.99.

B3: RpoE peptide P3 (peptide)
peptide: FRAREAIDNKVQPLIRR
notes: peptide covering conserved region 4 of RpoE, E. coli, including R178
With B3, binding in assay [1] was characterised by a dissociation constant (Kd) of 19 µM.

B4: S2-derived peptide (peptide)
chain: TRYWNPKMKPFIFGA
modifications: This paper prints neither letters nor limits. Limits 20-34 are recalled from the SlyD/FKBP S2 peptide of the cited work (ref. 12), as are the check residues. Terminal modifications unknown.
With B4, binding in assay [1] was characterised by a dissociation constant (Kd) of 18.8 µM.

For B5, the entries for the “stoichiometry N” value with AhpC-derived peptide and with RseA peptide Rse1 were 0.99 and 1, respectively. For the same molecule, the dH is -1.48 kcal/mol in the assay with RseA peptide Rse3 and -2.18 kcal/mol with RseA peptide Rse1.

In assay [1], B6 showed a dissociation constant Kd of 13 µM.

For B7, in assay [1], the Kd worked out at 15.1 µM.

B8: RpoE peptide P2 (peptide)
peptide: KVASLVSRYVPSGDV
notes: peptide derived from conserved region 2 of RpoE, E. coli
Turning to B8, in assay [1], binding was characterised by a dissociation constant (Kd) of 10.7 µM.

B9: RpoE peptide P4 (peptide)
peptide: AAIMDCPVGTVRSRI
notes: peptide derived from conserved region 4 of RpoE, E. coli
The molecule B9 displayed a Kd in assay [1] of 10.3 µM.

B10: RpoE peptide P1 (peptide)
peptide: YLVAQGRRPPSSDVD
notes: peptide corresponding to the C-terminal end of conserved region 2.4 of RpoE, E. coli
The molecule B10 showed a Kd in assay [1] of 38.1 µM.
